Assay results: paper PMC5066947, “Voltage-Dependent Anion Channel-1, a Possible Ligand of Plasminogen Kringle 5” (PLoS ONE, 2016)

Molecular target: T1, recombinant voltage-dependent anion channel-1 (human, UniProt P21796 1-283)
T1 construct: human voltage-dependent anion channel-1; cDNA amplified from pCMV6-XL5-VDAC-1 with primers designed on NM_003374, cloned into pET-28b by XhoI and NheI; band at about 32 kDa on SDS-PAGE; also called VDAC-1; hVDAC-1
Assay: SPR; Kringle 5 coupled to a CM5 sensor chip by amino coupling (180 RU); VDAC-1 injected at 0 to 280.00 μmol·L^-1; uncoupled cell as reference; 25°C, 40 μl·min^-1; regeneration with 10 mmol·L^-1 HEPES pH 7.4, 300 mmol·L^-1 NaCl
Conditions: both partners purified

T1 sequence (P21796 whole entry): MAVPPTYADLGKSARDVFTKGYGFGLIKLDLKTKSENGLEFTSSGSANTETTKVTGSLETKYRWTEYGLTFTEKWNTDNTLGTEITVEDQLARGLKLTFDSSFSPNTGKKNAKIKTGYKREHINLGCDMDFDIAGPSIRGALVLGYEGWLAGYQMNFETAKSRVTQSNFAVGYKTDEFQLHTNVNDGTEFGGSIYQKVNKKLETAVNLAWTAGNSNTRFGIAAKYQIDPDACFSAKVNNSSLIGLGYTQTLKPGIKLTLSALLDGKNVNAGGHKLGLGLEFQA

B1: recombinant plasminogen Kringle 5 (domain or fragment, human)
chain: DCMFGNGKGYRGKRATTVTGTPCQDWAAQEPHRHSIFTPETNPRAGLEKNYCRNPDGDVGGPWCYTTNPRKLYDYCDVPQCAAP
notes: fifth kringle domain of plasminogen, about 80 amino acid residues; expressed from pET-28b-hK5; band at about 8 kDa on SDS-PAGE; The vector pET-28b-hK5 was built in the authors' laboratory; neither the residue limits nor the end of the 6 x His tag are told; also called hK5; source: E. coli BL21 (DE3), soluble, purified (Ni2+-chelated Sepharose 6 Fast Flow, Sephadex G-25)
Ka: 2430 M⁻¹
